“Also recorded” adds a separate entry of the source.
Key:
[1] = biological target: T1, PTP1B under reducing condition (Homo sapiens, UniProt P18031); experiment: In vitro binding assay, purified recombinant PTP1B (37 kDa) and purified scFv, Ni-NTA pull down, reducing condition; conditions: with 2 mM TCEP; FIG. 9
T1 construct: made in house; host or cells: E. coli BL21 (pET19b)
T1 sequence (P18031 3-277 limits assumed): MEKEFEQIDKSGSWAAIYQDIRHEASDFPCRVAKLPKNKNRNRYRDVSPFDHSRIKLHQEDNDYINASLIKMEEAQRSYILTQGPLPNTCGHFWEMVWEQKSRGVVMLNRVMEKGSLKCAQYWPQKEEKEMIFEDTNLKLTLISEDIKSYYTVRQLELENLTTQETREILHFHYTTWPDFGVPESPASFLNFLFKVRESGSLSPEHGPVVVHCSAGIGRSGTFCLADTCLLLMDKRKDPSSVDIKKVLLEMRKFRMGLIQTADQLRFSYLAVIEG
Method: (§1) They established conditions in which PTP1B is reversibly oxidized by H2O2 in solution (FIG. 8). An artificial protein substrate RCML, in which tyrosine was phosphorylated with ^32P using recombinant GST-FER kinase was used in this assay to measure the phosphatase activity. Recombinant PTP (37 kDa) was incubated with increasing concentration (50 μM to 100 mM) of H2O2. A quick buffer exchange was done to remove the H2O2 and reducing agent (TCEP) was added to reactivate the enzyme.
(§2) In the in vitro binding assay, purified PTP was reversibly oxidized with […] followed by a quick buffer exchange to remove H2O2 (FIG. 8). Purified scFv was incubated in molar excess with PTP1B-OX or with PTP under reducing condition (with 2 mM TCEP) in binding buffer (20 mM HEPES, pH 7.4, 300 mM NaCl, 0.05% BSA, 0.05% Tween-20 and 10 mM imidazole) for 2 hours at 4° C. Ni-NTA agarose was added and incubated for one hour at 4° C. Protein complex bound to Ni-NTA agarose beads was pulled down and washed (three times, 5 minutes each, at 4° C.) with binding buffer containing 20 mM imidazole to reduce non-specific binding to the beads. The protein complex was eluted from the Ni-NTA agarose beads with 500 mM imidazole (in binding buffer, pH 7.4) for 15 minutes at 4° C. with gentle shaking. The complex was separated by SDS-PAGE and PTP1B was detected with anti-PTP1B antibody (FG6) and scFv was detected with anti-HA antibody [anti-HA (3F10)-HRP, Roche] by immunoblotting. Eight different scFvs (scFvs 20, 21, 24, 28, 45, 48, 57, and 105), expressed and purified from bacterial cultures were tested by this in vitro binding experiment.

[2] = biological target: T2, PTP1B-OX (Homo sapiens, UniProt P18031); experiment: In vitro binding assay, purified recombinant PTP1B (37 kDa) and purified scFv, Ni-NTA pull down; conditions: purified proteins, scFv in molar excess, 2 hours at 4° C.; FIG. 9
T2 construct: made in house; host or cells: E. coli BL21 (pET19b)
T2 sequence (P18031 3-277): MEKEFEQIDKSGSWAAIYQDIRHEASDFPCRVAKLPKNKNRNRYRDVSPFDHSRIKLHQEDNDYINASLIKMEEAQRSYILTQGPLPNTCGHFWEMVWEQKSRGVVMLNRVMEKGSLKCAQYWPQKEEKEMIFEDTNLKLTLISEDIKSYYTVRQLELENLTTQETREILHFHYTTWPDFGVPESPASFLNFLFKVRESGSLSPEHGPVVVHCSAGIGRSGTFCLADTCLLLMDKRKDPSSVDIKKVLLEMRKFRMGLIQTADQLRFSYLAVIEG
Method: as §1, §2

[3] = biological target: T3, PTP1B (reduced, active) (Homo sapiens, UniProt P18031); experiment: Direct effect of scFvs/antibodies on PTP1B phosphatase activity (32P-pTyr-RCML substrate); assay type: biochemical; conditions: 32P-labeled pTyr-RCML substrate, FIG. 1
T3 construct: made in house; host or cells: E. coli BL21 (pET19b)
T3 sequence (P18031 3-277 limits assumed): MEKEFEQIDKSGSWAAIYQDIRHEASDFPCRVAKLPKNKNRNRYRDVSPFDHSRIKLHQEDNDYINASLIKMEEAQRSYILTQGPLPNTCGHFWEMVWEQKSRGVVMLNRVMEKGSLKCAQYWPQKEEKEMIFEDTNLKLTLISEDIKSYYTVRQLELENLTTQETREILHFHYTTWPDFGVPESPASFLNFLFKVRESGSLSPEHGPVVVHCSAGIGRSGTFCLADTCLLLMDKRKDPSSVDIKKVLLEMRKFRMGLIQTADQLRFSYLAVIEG
Method: Applicant's hypothesis was that scFvs that are able to bind to and stabilize the oxidized conformation of PTP1B in solution would inhibit reactivation by reducing agent, but have no direct inhibitory effect on phosphatase activity in assays in vitro. Activity was measured using ^32P-labeled pTyr-Reduced Carboxamidomethylated and Maleylated Lysozyme as substrate. Applicant established conditions in which wild type PTP1B could be reversibly oxidized in vitro. PTP1B was inactivated following addition of H2O2. […] Applicant validated this approach further, by testing the effects of expressing one of the scFvs (scFv45) as a single chain antibody fragment “intrabody” to PTP1B, using 293T cells as the expression system. This intrabody was expressed transiently and then tested for effects on insulin signaling, focusing initially on the tyrosine phosphorylation status of the beta-subunit of the insulin receptor and insulin receptor substrate (IRS-1).
Reduced carboxamidomethylated and maleylated lysozyme (RCML) was labeled with ^32P using recombinant GST-FER kinase to stoichiometries up to 0.8 (mol ^32P incorporated/mol of protein). This ^32P-Labeled phospho-tyrosyl RCML was used as the substrate in the in-solution phosphatase assay for screening the conformation sensor scFvs. Recombinant PTP1B was reversibly oxidized and transiently inactivated with H2O2 (5× molar excess of the protein). […] Purified bacterially expressed scFvs (100× molar excess of PTP1B) were incubated with PTP after H2O2 treatment and its removal and the effect of individual scFv on stabilizing the reversibly oxidized conformation was assessed by the phosphatase assay under reducing condition.
In order to screen the isolated scFvs for those that inhibit reactivation of PTP1B-OX by reducing agent, but have no direct inhibitory effect on phosphatase activity in assays in vitro, the effect of six scFvs (scFv20, scFv34, scFv45, scFv57, scFv64 and scFv106) on PTP1B activity was determined. PTP1B activity was measured using 32P-labeled pTyr-Reduced Carboxamidomethylated and Maleylated Lysozyme as substrate (FIGS. 1 and 2). Addition of the reducing agent TCEP alone had no substantial effect in PTP1B activity was assessed.

[4] = biological target: T4, endogenous PTP1B under reducing conditions (Homo sapiens, UniProt P18031); experiment: Intrabody interaction in 293T cells under reducing condition (NAC, TCEP) (Ni-NTA pull down / immunoprecipitation); assay type: cell-based; conditions: 20 mM NAC, lysis buffer with 2 mM TCEP, FIGS. 11, 12
T4 construct: endogenous in cells; host or cells: 293T cells (transfected only with the scFv intrabody)
T4 sequence (P18031 1-435): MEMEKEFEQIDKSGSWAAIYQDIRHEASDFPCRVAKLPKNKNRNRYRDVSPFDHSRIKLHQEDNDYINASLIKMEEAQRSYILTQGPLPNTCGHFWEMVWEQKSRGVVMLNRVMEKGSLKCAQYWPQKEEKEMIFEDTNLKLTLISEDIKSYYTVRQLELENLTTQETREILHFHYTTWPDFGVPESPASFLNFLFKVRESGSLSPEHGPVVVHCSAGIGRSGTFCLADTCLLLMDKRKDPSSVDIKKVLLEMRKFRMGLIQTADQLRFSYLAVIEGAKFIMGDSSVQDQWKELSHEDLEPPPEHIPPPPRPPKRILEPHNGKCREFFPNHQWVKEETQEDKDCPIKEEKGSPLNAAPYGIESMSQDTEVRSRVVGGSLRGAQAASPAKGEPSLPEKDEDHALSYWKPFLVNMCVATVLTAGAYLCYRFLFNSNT
Method: (§3) One of the positive candidate scFvs (scFv45) was cloned in pcDNA3.2/V5-GW/D-TOPO expression vector and transiently expressed in mammalian cells as stable intracellular antibody (aka intrabody) (FIG. 10). To detect PTP1B-OX and scFv45 interaction in mammalian cells, scFv45 was overexpressed in 293T cells as described herein (See Example 4) and 48 hours post transfection the cells were serum-starved for 16 hours in growth medium (DMEM, low glucose) without serum (FBS), then incubated with 1 mM H2O2 (in growth medium without serum) for 5 minutes at 37° C. or treated with 20 mM NAC (in growth medium without serum) for 1 hour at 37° C. Cells treated with H2O2 were washed twice with cold (4° C.) PBS and lysed in lysis buffer (25 mM HEPES, pH 7.4, 150 mM NaCl, 0.25% Deoxychloate, 1% TritonX-100, 25 mM NaF, 10 mM MgCl2, 1 mM EDTA, 10% Glycerol, 0.5 mM PMSF, 10 mM Benzamidine, protease inhibitor cocktail). Cells treated with NAC were lysed with lysis buffer containing 2 mM TCEP to ensure a post-lysis reducing environment. Interaction between PTP1B and intrabody45 were tested by pulling down the protein complex from 1 mg of total cell lysate with Ni-NTA agarose or by immunoprecipitating PTP with anti-PTP1B (FG6). For the pull down experiment, Ni-NTA agarose beads were incubated with the lysates (both oxidized and reduced) at 4° C. Protein complex bound to the Ni-NTA agarose beads was pulled down and washed three times; first with lysis buffer containing 20 mM imidazole followed by two more washes with wash buffer (PBS, pH 7.4, 20 mM imidazole, 0.05% BSA, 0.05% Tween-20 and protease inhibitors). Applicant used 20 mM imidazole in the wash buffer to reduce the non-specific binding of proteins with the Ni-NTA agarose beads. The complex was eluted with wash buffer containing 500 mM imidazole with gentle shaking at 4° C. and the eluate was mixed with SDS sample buffer with DTT. For the immunoprecipitation experiments, 1 mg of total cell lystates (both oxidized and reduced) was incubated with anti-PTP1B antibody (FG6) at 4° C. The interacting protein complex was immunoprecipitated after incubating the lysate-antibody mixture with protein A/G Sepharose at 4° C. After immunoprecipitation, Sepharose beads were washed three times; first with lysis buffer followed by two more washes with wash buffer (PBS, pH 7.4, 0.05% BSA, 0.05% Tween-20 and protease inhibitors). The Sepharose beads were then heated at 90° C. in 2×SDS sample buffer with DTT. Proteins from the pulled down or immunoprecipitated complex were separated by SDS-PAGE. PTP was detected with anti-PTP1B antibody (FG6) and the intrabodies were detected with anti-HA (3F10)-HRP antibody [anti-HA (3F10)-HRP, Roche] by immunoblotting.
In the initial in vitro phosphatase screening assay using reversibly oxidized (with H2O2) recombinant PTP1B, Applicant found four different PTP1B-OX specific scFvs (scFv45, scFv57, scFv64 and scFv106) from the initial pool of 12 different scFvs. […] Applicant has also shown that scFv45, expressed as an intrabody in mammalian cells, can bind to endogenous PTP1B-OX but not endogenous PTP under reducing conditions. Further assessment was carried out to identify additional PTP1B-OX-specific intrabodies. Additional scFvs have been subcloned in pcDNA3.2/V5-GW/D-TOPO mammalian expression vector (FIG. 10) from their respective phagemid constructs. […]

[5] = biological target: T5, endogenous PTP1B-OX (Homo sapiens, UniProt P18031); experiment: Intrabody interaction in 293T cells treated with H2O2 (Ni-NTA pull down / anti-PTP1B immunoprecipitation); assay type: cell-based; conditions: 1 mM H2O2 5 minutes, FIGS. 11, 12
T5 construct: endogenous in cells; host or cells: 293T cells (transfected only with the scFv intrabody)
T5 sequence (P18031 1-435): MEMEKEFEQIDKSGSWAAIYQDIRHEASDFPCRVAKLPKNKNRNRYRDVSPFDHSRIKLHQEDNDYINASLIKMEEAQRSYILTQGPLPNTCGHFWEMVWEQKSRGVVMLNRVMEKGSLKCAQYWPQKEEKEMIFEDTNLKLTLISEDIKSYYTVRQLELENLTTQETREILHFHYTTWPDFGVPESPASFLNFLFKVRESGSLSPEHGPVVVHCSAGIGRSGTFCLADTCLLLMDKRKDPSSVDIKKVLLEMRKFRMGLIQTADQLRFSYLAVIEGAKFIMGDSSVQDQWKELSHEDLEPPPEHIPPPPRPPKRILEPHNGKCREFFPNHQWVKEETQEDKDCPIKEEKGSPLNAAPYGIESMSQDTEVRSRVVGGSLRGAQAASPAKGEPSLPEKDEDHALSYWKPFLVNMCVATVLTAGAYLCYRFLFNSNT
Method: as §3
In the initial in vitro phosphatase screening assay using reversibly oxidized (with H2O2) recombinant PTP1B, Applicant found four different PTP1B-OX specific scFvs (scFv45, scFv57, scFv64 and scFv106) from the initial pool of 12 different scFvs. […] Applicant has also shown that scFv45, expressed as an intrabody in mammalian cells, can bind to endogenous PTP1B-OX but not endogenous PTP under reducing conditions. Further assessment was carried out to identify additional PTP1B-OX-specific intrabodies. Additional scFvs have been subcloned in pcDNA3.2/V5-GW/D-TOPO mammalian expression vector (FIG. 10) from their respective phagemid constructs. After transient overexpression of these scFvs as intrabodies in 293T cells, the interaction between endogenous PTP1B and these intrabodies in both H2O2-treated cells and cells was observed under reducing condition (treated with NAC and lysed with lysis buffer containing TCEP). […] All can be used in the methods and compositions described herein. Additional scFvs, such as some or all of the 137 selected individual scFvs from the library, can be similarly tested by in vitro screening and/or by binding assay in mammalian cells.

B1: scFv20: scFv, SEQ ID NO: 53 (protein)
scFv: MKKTAIAIAVALAGFATVAQAALTQPSSVSANLGGIVEITCSGSSGSYGWYQQKSPGSAPVTVIYYNDKRPSNIPSRFSGSGSGSTNTLTIAGVRAEDEAVYYCGNEDSSGAAFGAGTTLTVLGQSSRSSAVTLDESGGGLQTPGGGLSLVCKASGFTFSDYDMFWVRQAPSKGLEFVAAITSSGTGTKYGAAVKGRATISKDNGQRTVRLQLNSLGAEDTGTYYCARSDADSTTWSAGEIDAWGHGTEVIVSSTSGQAGQHHHHHHGAYPYDVPDYAS
binding to PTP1B under reducing condition in vitro [1]: no significant binding
binding to PTP1B-OX in vitro [2]: no significant binding
direct effect on PTP1B activity [3]: no direct inhibition of PTP activity

B2: scFv67: scFv, SEQ ID NO: 100 and 161 (protein)
scFv: MKKTAIAIAVALAGFATVAQAALTQPSSVSANPGGTVKITCSGSSSAYGYGWYQQKSPGSAPVTVIYNNNKRPSNIPSRFSGSKSGSTGTLTITGVQAEDEAVYFCGSEDSSTDAIFGAGTTLTVLGQSSRSSAVTLDESGGGLQTPGGALSLVCKASGFTFSSYDMGWVRQAPGKGLEYVAGITNDGRYASYGSAVDGRATISRDNGQSTVRLQLNNLRAEDTGTYYCARDDGSGWTGNTIDTWGHGTEVIVSSTSGQAGQHHHHHHGAYPYDVPDYAS
binding of intrabody to endogenous PTP1B under reducing conditions [4]: not in the presence of NAC and TCEP
binding of intrabody to endogenous PTP1B-OX [5]: bound to endogenous PTP1B-OX strongly; also recorded: co-pulldown of PTP1B-OX in the presence of H2O2

Reference: patent US9074002B2, “PTP1B inhibitors” (Cold Spring Harbor Laboratory, priority 2009, dated 2015)
